Where two headings read alike, the source gives them in different places.

The target in test [1] is B.1.351 (S1). The test can be described thus: ELISA, heat map.
Test [2] deals with T1, SARS-CoV-2 Spike RBD (tagless) (SARS-CoV-2, UniProt P0DTC2 319-541). The experiment in a line: Octet BLI; tagless RBD as analyte over 23-H7-coated AHC sensors; 1:1 kinetic fit.
In test [3] the target is SARS-CoV-2 Spike trimer (recombinant, wild type) (SARS-CoV-2, UniProt P0DTC2 14-1213). The test can be described thus: ELISA on plate-adsorbed recombinant Spike.
Test [4] has as its target T1, SARS-CoV-2 Spike RBD (tagless).
For test [5], the target named is N439K. The test can be described thus: ELISA, heat map.
The target in test [6] is K417N. The experiment in a line: ELISA, heat map.
For test [7], the target named is W436R. The experiment in a line: ELISA, heat map.
For test [8], the target named is V367F. The test can be described thus: ELISA, heat map.
Test [9] has as its target Y453F. The test can be described thus: ELISA, heat map.
For test [10], the target named is A435S. The experiment in a line: ELISA, heat map.
Test [11] has as its target V483A. The experiment in a line: ELISA, heat map.
Test [12] deals with N354D. The test can be described thus: ELISA, heat map.
Test [13] concerns the target K458R. The test can be described thus: ELISA, heat map.
In test [14] the target is N501Y. The experiment in a line: ELISA, heat map.
Test [15] deals with G476S. The test can be described thus: ELISA, heat map.
Test [16] concerns the target E484K. The experiment in a line: ELISA, heat map.
Test [17] deals with F342L. The experiment in a line: ELISA, heat map.

B1: 22-E7 (antibody, V domains shown)
VH: QVQLVESGGGVVQPGTSLRLSCAASGFTFNNYPMFWVRQAPGKGLEWLALISYDGNHKVYADSVKGRFTISRDNAKNTLYLQMHSLRAEDTALYYCASDLSGAEDSWGQGTLVTVSS
VL: QSALTQPASVSGSPGQSITISCTGTSSDVGGYNYVSWYQQHPGKAPKLLIYEVSNRPSGVSNRFSGSKSGNTASLTISGLQAEDEADYYCSSYTSSSTWVFGGGTKLTVL
notes: also called bin C
Turning to B1, the binding result in test [1] is listed as “binds”.

B2: 22-F7 (antibody, V domains shown)
VH: QVQLVESGGGVVQPGRSLRLSCAASGFSFTNYGMHWVRQAPGKGLEWVAVISYDGSIKYYEDSLKGRFTVSRDNSKKTLYLQMNSLRAEDTAVYYCTRERGTGIDYWGLGTLVTVSS
VL: QSALTQPASVSGYPGQSITLSCTGTKSDIGAYNYVSWYQQHPGKAPKLMVYDVSNRPSGLSNRFSGSKSDNTASLTISGLQAEDEAHYYCSSYTTSGTVVFGGGTKVTVL
notes: also called bin C
As to B2, the binding result in test [1] is listed as “binds”.

B3: 23-H7 (antibody, V domains shown)
VH: QVQLVQSGAEVKLPGASMKVSCKASGYTFSTYYMHWVRQAPGQGPEWMGVIDPSGGTTSYAQKFHDRIAMTRDTSTSTAYLELSSLRSEDMAVYYCARGGFADAVDYWGQGTLVTVSS
VL: NFMLTQPHSVSGSPGKTVTISCTRNSGSIAGNYVQWYQQRPGSAPTTVIYEDNQRPSGVPDRFSGSIDSSSNSASLTISGLKTEDEADYYCQSYDASHLHVIFGGGTKVTVL
notes: also called bin 2
On to B3, for which the Kd in test [2] and in [4] was 4 nM in each case. Besides, in test [3], the “EC50 (read off the curve)” value is ~2 ng/mL. Moreover, the binding result in [5], in test [6], in test [7], in test [8], in test [9] and in [10] was “binds” each time. For the same molecule, the binding result in [11], in [12], in test [13], in test [14], in [1] and in test [15] was “binds” in each case. Besides, the binding result in test [16] is listed as “binds”.

B4: 23-H7 Fab (Fab, V domains shown)
VH: QVQLVQSGAEVKLPGASMKVSCKASGYTFSTYYMHWVRQAPGQGPEWMGVIDPSGGTTSYAQKFHDRIAMTRDTSTSTAYLELSSLRSEDMAVYYCARGGFADAVDYWGQGTLVTVSS
VL: NFMLTQPHSVSGSPGKTVTISCTRNSGSIAGNYVQWYQQRPGSAPTTVIYEDNQRPSGVPDRFSGSIDSSSNSASLTISGLKTEDEADYYCQSYDASHLHVIFGGGTKVTVL
For the molecule B4, in test [4], the affinity, expressed as Kd, was 4.6 nM. This lies in the single-digit nanomolar range.

B5: 2-A6 (antibody, V domains shown)
VH: QVTLRESGPALVKPTQTLTLTCTFSGFSLNTRGMSVSWIRQPPGKALEWLALIDWEDDKFYRTSLMTRLTISKDIFKNQVVLTMTNVDPVDTGTYYCARTYSVGVKYFGMDVWGQGTTVTVSS
VL: SSELTQDPAVSVALGQTVRITCQGDSLRNYYASWYRQEPGQAPILLIYGGNYRPSGIPDRFSGSSSGNTASLTITGAQAEDEADYYCNSRDSSGNHVVFGGGTKLTVL
notes: also called bin S2
As for B5, the binding result in [1] is recorded as “no binding”.

B6: 22-D9 (antibody, V domains shown)
VH: QVQLVQSGAEVKKPGSSVNVSCKTSGGTFNTYSINWVRQAPGQGLEWMGEIIPIFDKPNYAQKFQGRVTITADESTSTAYMELTSLRSDDTAVYYCARGTGYYYGMDVWGQGTTVTVSS
VL: QSVLTQPPSVSGAPRQTVTISCFGSRSNIGNYPVNWYHQVPGKAPKVVVYYDDLLPSGISDRFSGYKSGTSASLTISGLRSEDEADYYCATWDDSLNVWVFGGGTKLTVL
notes: also called bin 4
Regarding B6, the “EC50 (read off the curve)” value in test [3] is ~10 ng/mL. Further, the binding result in test [5], in test [6], in [7], in test [8], in test [17] and in [9] was “binds” throughout. For the same molecule, the binding result in test [10] is listed as “binds”; in test [11] it was “binds”; in test [12] it was “binds”; in test [13], “binds”; in [14], “binds”; in [1] it was “no binding”. For the same molecule, the binding result in [15] and in test [16] was “binds” each time.

The record behind these values is patent US20230250158A1 (TALEM THERAPEUTICS, published 2023).
